Assay [1] deals with gp120/sCD4 complex (HIV-1 YU2) (UniProt P35961). Nature of the assay: ELISA, gp120/sCD4 captured by D7324, bound antibody as OD 490 nm. (In general: In an ELISA, binding on a coated surface is turned into a signal by an enzyme label.)
The target in assay [2] is wild type gp120YU2 (HIV-1 YU2) (UniProt P35961). As to the kind of experiment: ELISA, gp120 captured by D7324, bound antibody as OD 490 nm.
Assay [3] deals with gp120/sCD4 complex (HIV-1 YU2) (UniProt P35961). Nature of the assay: SPR (BIACORE 2000), antibody immobilized on CM4 chip, gp120/sCD4 as analyte, 1:1 Langmuir fit. Background: In SPR one partner is held on a chip, and binding of the other changes the refractive index at the surface.
Assay [4] deals with gp120ΔV2sdCD4 chimeric protein (HIV-1 YU2) (UniProt P35961). As to the kind of experiment: SPR (BIACORE 2000), antibody immobilized on CM4 chip, chimeric protein as analyte, 1:1 Langmuir fit.
In assay [5] the target is gp120ΔV1/V2sdCD4 chimeric protein (HIV-1 YU2) (UniProt P35961). Described as above.
Assay [6] concerns the target gp120/sCD4 complex (HIV-1 YU2) (UniProt P35961). Nature of the assay: SPR, antibody immobilized; KD of gp120/sCD4 against KD of gp120ΔV1/V2sdCD4 and gp120ΔV2sdCD4.

The term EC50 (read off the curve) denotes the concentration at which the effect is half-maximal. Read a high EC50 (read off the curve) as a less potent agent. The term Kd denotes a measure of binding affinity in units of concentration. By koff is commonly meant the rate constant with which the complex falls apart. High values mean fast dissociation, low ones slow dissociation. As a reminder, the kon is a measure of how fast the partners come together. Read a high kon as faster complex formation.

As for human MAb F105 (antibody), the EC50 (read off the curve) in assay [1] came to 0.3 µg/mL; in assay [2] it was 0.1 µg/mL.
In assay [3], human CD4i monoclonal antibody E51 showed a Kd of 0.21 nM, a koff of 0.000169 s⁻¹ and an on-rate (kon) of 796000 M⁻¹ s⁻¹. In assay [4], this substance registered a Kd of 0.013 nM, a koff of 0.000398 s⁻¹ and a kon of 3.08e+07 M⁻¹ s⁻¹. In assay [5], the Kd amounted to 0.012 nM, the koff worked out at 0.000516 s⁻¹ and the kon turned out to be 4.27e+07 M⁻¹ s⁻¹.
With human CD4i monoclonal antibody 4.8D, in assay [3], the Kd is 1.2 nM, the koff came to 0.000212 s⁻¹ and the kon is 177000 M⁻¹ s⁻¹. Moreover, in assay [4], the Kd stood at 0.038 nM, the koff stood at 0.000197 s⁻¹ and the on-rate (kon) was determined as 5.2e+06 M⁻¹ s⁻¹. Further, in assay [5], the Kd was determined as 0.015 nM, the koff came to 0.000149 s⁻¹ and the kon came to 9.45e+06 M⁻¹ s⁻¹. This substance also yielded a fold KD against the chimeric proteins in assay [6] of 100 fold.

The record behind these values is patent US20100303858A1.
